The supplement of paper PMC10567573

B1: RHOBTB3 (parent)
chain: QLQSMPSRELASMNLDIVDLLKKA
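Also: lentivirally expressed fusions sorted by FACS into six bins by GFP to DsRed ratio, PSI derived from sequencing read proportions per bin multiplied by bin number.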

Variants of: B1
Test: protein stability index of a GFP-peptide fusion (GPS, HEK-293T) (PSI 1-6); higher = more stable
Conditions: c terminus: a fixed tail appended
In the case of QLQHMPSRELASMNLDIVDLLKKA [S4H], the protein stability index is reported as 3.24. For QLQKMPSRELASMNLDIVDLLKKA [S4K], the protein stability index was 3.08. With QLQWMPSRELASMNLDIVDLLKKA [S4W] the protein stability index was 3.6. QLQRMPSRELASMNLDIVDLLKKA [S4R] showed a protein stability index of 3.06. QLQIMPSRELASMNLDIVDLLKKA [S4I] gave a protein stability index of 3.78. Variant QLQLMPSRELASMNLDIVDLLKKA [S4L] has a protein stability index of 3.23. QLQYMPSRELASMNLDIVDLLKKA [S4Y] gave a protein stability index of 3.75. For QLQVMPSRELASMNLDIVDLLKKA [S4V], the protein stability index was 3.11. Variant QLQPMPSRELASMNLDIVDLLKKA [S4P] has a protein stability index of 3.54. Variant QLQTMPSRELASMNLDIVDLLKKA [S4T] has a protein stability index of 3.64. In the case of QLQNMPSRELASMNLDIVDLLKKA [S4N], the protein stability index is reported as 2.78. Variant QLQGMPSRELASMNLDIVDLLKKA [S4G] has a protein stability index of 3.82. Work on QLQMMPSRELASMNLDIVDLLKKA [S4M] yielded a protein stability index of 3.28. With QLQSRPSRELASMNLDIVDLLKKA [M5R] the protein stability index was 3.46. With QLQSIPSRELASMNLDIVDLLKKA [M5I] the protein stability index was 2.95. With QLQSHPSRELASMNLDIVDLLKKA [M5H] the protein stability index was 3.43. Work on QLQSWPSRELASMNLDIVDLLKKA [M5W] yielded a protein stability index of 2.07. For QLQSTPSRELASMNLDIVDLLKKA [M5T], the protein stability index was 3.94. QLQSLPSRELASMNLDIVDLLKKA [M5L] gave a protein stability index of 3.88. Work on QLQSAPSRELASMNLDIVDLLKKA [M5A] yielded a protein stability index of 3.04. Variant QLQSVPSRELASMNLDIVDLLKKA [M5V] has a protein stability index of 3.32. For QLQSPPSRELASMNLDIVDLLKKA [M5P], the protein stability index was 3.54. Variant QLQSQPSRELASMNLDIVDLLKKA [M5Q] has a protein stability index of 3.69. In the case of QLQSNPSRELASMNLDIVDLLKKA [M5N], the protein stability index is reported as 2.78. With QLQSFPSRELASMNLDIVDLLKKA [M5F] the protein stability index was 3.33. In the case of QLQSCPSRELASMNLDIVDLLKKA [M5C], the protein stability index is reported as 3.23. Work on QLQSYPSRELASMNLDIVDLLKKA [M5Y] yielded a protein stability index of 2.01. With QLQSGPSRELASMNLDIVDLLKKA [M5G] the protein stability index was 2.58. In the case of QLQSEPSRELASMNLDIVDLLKKA [M5E], the protein stability index is reported as 3.54. QLQSDPSRELASMNLDIVDLLKKA [M5D] showed a protein stability index of 3.78. QLQSSPSRELASMNLDIVDLLKKA [M5S] gave a protein stability index of 3.76. QLQSKPSRELASMNLDIVDLLKKA [M5K] gave a protein stability index of 4.06. QLQSMPPRELASMNLDIVDLLKKA [S7P] gave a protein stability index of 4.46. Variant QLQSMPDRELASMNLDIVDLLKKA [S7D] has a protein stability index of 3.9. In the case of QLQSMPCRELASMNLDIVDLLKKA [S7C], the protein stability index is reported as 2.69. With QLQSMPERELASMNLDIVDLLKKA [S7E] the protein stability index was 3.48. QLQSMPTRELASMNLDIVDLLKKA [S7T] showed a protein stability index of 4.35. QLQSMPARELASMNLDIVDLLKKA [S7A] showed a protein stability index of 3.59. Work on QLQSMPNRELASMNLDIVDLLKKA [S7N] yielded a protein stability index of 2.98. In the case of QLQSMPLRELASMNLDIVDLLKKA [S7L], the protein stability index is reported as 2.56. For QLQSMPWRELASMNLDIVDLLKKA [S7W], the protein stability index was 5. Work on QLQSMPHRELASMNLDIVDLLKKA [S7H] yielded a protein stability index of 4.55. QLQSMPIRELASMNLDIVDLLKKA [S7I] gave a protein stability index of 2.42. With QLQSMPKRELASMNLDIVDLLKKA [S7K] the protein stability index was 2.97. Work on QLQSMPMRELASMNLDIVDLLKKA [S7M] yielded a protein stability index of 2.51. With QLQSMPQRELASMNLDIVDLLKKA [S7Q] the protein stability index was 3.77. Work on QLQSMPRRELASMNLDIVDLLKKA [S7R] yielded a protein stability index of 4.13. QLQSMPYRELASMNLDIVDLLKKA [S7Y] showed a protein stability index of 3. Work on QLQSMPGRELASMNLDIVDLLKKA [S7G] yielded a protein stability index of 2.66. With QLQSMKSRELASMNLDIVDLLKKA [P6K] the protein stability index was 3.77. In the case of QLQSMDSRELASMNLDIVDLLKKA [P6D], the protein stability index is reported as 3.38. For QLQSMWSRELASMNLDIVDLLKKA [P6W], the protein stability index was 1.85. Variant QLQSMLSRELASMNLDIVDLLKKA [P6L] has a protein stability index of 2.2. With QLQSMQSRELASMNLDIVDLLKKA [P6Q] the protein stability index was 3. QLQSMFSRELASMNLDIVDLLKKA [P6F] gave a protein stability index of 1.93. With QLQSMVSRELASMNLDIVDLLKKA [P6V] the protein stability index was 2.14. Work on QLQSMNSRELASMNLDIVDLLKKA [P6N] yielded a protein stability index of 3.55. In the case of QLQSMRSRELASMNLDIVDLLKKA [P6R], the protein stability index is reported as 3.25. For QLQSMISRELASMNLDIVDLLKKA [P6I], the protein stability index was 2.03. QLQSMHSRELASMNLDIVDLLKKA [P6H] showed a protein stability index of 2.05. With QLQSMCSRELASMNLDIVDLLKKA [P6C] the protein stability index was 2.5. For QLQSMGSRELASMNLDIVDLLKKA [P6G], the protein stability index was 2.91. For QLQSMASRELASMNLDIVDLLKKA [P6A], the protein stability index was 3.19. QLQSMYSRELASMNLDIVDLLKKA [P6Y] gave a protein stability index of 1.88. In the case of QLQSMTSRELASMNLDIVDLLKKA [P6T], the protein stability index is reported as 3.46. QLQSMPSRELASMHLDIVDLLKKA [N14H] showed a protein stability index of 3.01. QLQSMPSRELASMGLDIVDLLKKA [N14G] gave a protein stability index of 3.68. In the case of QLQSMPSRELASMFLDIVDLLKKA [N14F], the protein stability index is reported as 1.79. QLQSMPSRELASMMLDIVDLLKKA [N14M] gave a protein stability index of 2.63. Work on QLQSMPSRELASMPLDIVDLLKKA [N14P] yielded a protein stability index of 3.78. With QLQSMPSRELASMALDIVDLLKKA [N14A] the protein stability index was 2.87. QLQSMPSRELASMDLDIVDLLKKA [N14D] showed a protein stability index of 3.92. For QLQSMPSRELASMILDIVDLLKKA [N14I], the protein stability index was 2.61. QLQSMPSRELASMELDIVDLLKKA [N14E] gave a protein stability index of 3.62. QLQSMPSRELASMCLDIVDLLKKA [N14C] gave a protein stability index of 2.16. Work on QLQSMPSRELASMLLDIVDLLKKA [N14L] yielded a protein stability index of 2.6. Variant QLQSMPSRELASMKLDIVDLLKKA [N14K] has a protein stability index of 3.75. With QLQSMPSRELASSNLDIVDLLKKA [M13S] the protein stability index was 3.35. With QLQSMPSRELASANLDIVDLLKKA [M13A] the protein stability index was 4. Work on QLQSMPSRELASRNLDIVDLLKKA [M13R] yielded a protein stability index of 3.61. Variant QLQSMPSRELASHNLDIVDLLKKA [M13H] has a protein stability index of 3.59. In the case of QLQSMPSRELASVNLDIVDLLKKA [M13V], the protein stability index is reported as 3.7. Variant QLQSMPSRELASCNLDIVDLLKKA [M13C] has a protein stability index of 3.74. Variant QLQSMPSRELASINLDIVDLLKKA [M13I] has a protein stability index of 2.39. With QLQSMPSRELASENLDIVDLLKKA [M13E] the protein stability index was 4.19. In the case of QLQSMPSRELASFNLDIVDLLKKA [M13F], the protein stability index is reported as 2.97. For QLQSMPSRELASLNLDIVDLLKKA [M13L], the protein stability index was 3.52. Work on QLQSMPSRELASQNLDIVDLLKKA [M13Q] yielded a protein stability index of 3.79. In the case of QLQSMPSRELASWNLDIVDLLKKA [M13W], the protein stability index is reported as 2.88. In the case of QLQSMPSRELASKNLDIVDLLKKA [M13K], the protein stability index is reported as 3.8. QLQSMPSRELASYNLDIVDLLKKA [M13Y] gave a protein stability index of 3.17. For QLQSMPSRELASGNLDIVDLLKKA [M13G], the protein stability index was 3.76. QLQSMPSRELASDNLDIVDLLKKA [M13D] gave a protein stability index of 3.96. For QLQSMPSRELASTNLDIVDLLKKA [M13T], the protein stability index was 3.38.
